Measured values from US20210324028A1 (Pfizer, published 2021).
Numbering of substitutions follows the chain as printed. In names and notes the source's numbering stands.

T1: human IL-2Rβ (human, UniProt P14784 27-240, limits assumed)
T1 construct: also called hIL-2Rβ; IL-2 receptor beta
T1 sequence (looked up): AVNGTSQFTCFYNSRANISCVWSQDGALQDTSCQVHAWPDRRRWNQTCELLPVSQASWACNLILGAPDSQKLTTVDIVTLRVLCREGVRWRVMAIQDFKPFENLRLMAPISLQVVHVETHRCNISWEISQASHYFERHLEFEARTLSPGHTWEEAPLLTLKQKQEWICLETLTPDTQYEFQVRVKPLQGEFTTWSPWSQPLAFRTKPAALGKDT

B1: hIL-15 V49R/D30G (ligand)
chain: NWVNVISDLKKIEDLIQSMHIDATLYTESGVHPSCKVTAMKCFLLELQRISLESGDASIHDTVENLIILANNSLSSNGNVTESGCKECEELEEKNIKEFLQSFVHIVQMFINTGGGGSGHHHHHHHHGGGLNDIFEAQKIEWHE
B2: hIL-15 V49R/N1R (ligand)
chain: B1 chain with N1R, G30D
B3: hIL-15 V49R/H32F (ligand)
chain: B1 chain with G30D, H32F
B4: hIL-15 V49R/N4Y (ligand)
chain: B1 chain with N4Y, G30D
B5: hIL-15 V49R/K11W (ligand)
chain: B1 chain with K11W, G30D
B6: xmPD-1-hIL15 V49R/E46G/E64Q/D30N/M109A (other)
heavy 1: HHHHHHHHGGGGSGSGGEVQLVESGGGLVKPGGSLELSCAASGFTFSSYWMSWVRQAPEKGLEWVAAISPSGGSTYYADSVKGRFTISRDNAKNTLFLQMTSLRSEDTAMYYCAKESWGAYYDLWGQGTTVTVSSASTKGPSVFPLAPCSRSTSESTAALGCLVKDYFPEPVTVSWNSGALTSGVHTFPAVLQSSGLYSLSSVVTVPSSNFGTQTYTCNVDHKPSNTKVDKTVERKCRVRCPRCPAPPVAGPSVFLFPPKPKDTLMISRTPEVTCVVVAVSHEDPEVQFNWYVDGVEVHNAKTKPREEQFNSTFRVVSVLTVVHQDWLNGKEYKCKVSNKGLPSSIEKTISKTKGQPREPQVYTLPPSREEMTKNQVSLTCLVKGFYPSDIAVEWESNGQPENNYKTTPPMLDSDGSFFLYSRLTVDKSRWQQGNVFSCSVMHEALHNHYTQKSLSLSPGK
heavy 2: EVQLVESGGGLVKPGGSLELSCAASGFTFSSYWMSWVRQAPEKGLEWVAAISPSGGSTYYADSVKGRFTISRDNAKNTLFLQMTSLRSEDTAMYYCAKESWGAYYDLWGQGTTVTVSSASTKGPSVFPLAPCSRSTSESTAALGCLVKDYFPEPVTVSWNSGALTSGVHTFPAVLQSSGLYSLSSVVTVPSSNFGTQTYTCNVDHKPSNTKVDKTVERKCEVECPECPAPPVAGPSVFLFPPKPKDTLMISRTPEVTCVVVAVSHEDPEVQFNWYVDGVEVHNAKTKPREEQFNSTFRVVSVLTVVHQDWLNGKEYKCKVSNKGLPSSIEKTISKTKGQPREPQVYTLPPSREEMTKNQVSLTCEVKGFYPSDIAVEWESNGQPENNYKTTPPMLDSDGSFFLYSKLTVDKSRWQQGNVFSCSVMHEALHNHYTQKSLSLSPGSGGGGGTSATATPGANWVNVISDLKKIEDLIQSMHIDATLYTESNVHPSCKVTAMKCFLLGLQRISLESGDASIHDTVQNLIILANNSLSSNGNVTESGCKECEELEEKNIKEFLQSFVHIVQAFINT
light: DIVMTQSPSSLSVSAGDKVTMSCRASQGISSWLAWYQQKPWQPPKLLIYKASTLESGVPDRFTGSGSGTDFTLTISSVQAEDLAVYYCQQSYSTPWTFGGGTKLEIKGTVAAPSVFIFPPSDEQLKSGTASVVCLLNNFYPREAKVQWKVDNALQSGNSQESVTEQDSKDSTYSLSSTLTLSKADYEKHKVYACEVTHQGLSSPVTKSFNRGEC
notes: not restated for this mutant
B7: xmPD-1-hIL15Rasu-hIL15(E64Q/D30N/I68S/M109A) (other)
heavy 1: B6 heavy 1
heavy 2: EVQLVESGGGLVKPGGSLELSCAASGFTFSSYWMSWVRQAPEKGLEWVAAISPSGGSTYYADSVKGRFTISRDNAKNTLFLQMTSLRSEDTAMYYCAKESWGAYYDLWGQGTTVTVSSASTKGPSVFPLAPCSRSTSESTAALGCLVKDYFPEPVTVSWNSGALTSGVHTFPAVLQSSGLYSLSSVVTVPSSNFGTQTYTCNVDHKPSNTKVDKTVERKCEVECPECPAPPVAGPSVFLFPPKPKDTLMISRTPEVTCVVVAVSHEDPEVQFNWYVDGVEVHNAKTKPREEQFNSTFRVVSVLTVVHQDWLNGKEYKCKVSNKGLPSSIEKTISKTKGQPREPQVYTLPPSREEMTKNQVSLTCEVKGFYPSDIAVEWESNGQPENNYKTTPPMLDSDGSFFLYSKLTVDKSRWQQGNVFSCSVMHEALHNHYTQKSLSLSPGSGGGGGTSATATPGAITCPPPMSVEHADIWVKSYSLYSRERYICNSGFKRKAGTSSLTECVLNKATNVAHWTTPSLKCIRDPALVHQRPAPPSGGSGGGGSGGGSGGGGSGGNWVNVISDLKKIEDLIQSMHIDATLYTESNVHPSCKVTAMKCFLLELQVISLESGDASIHDTVQNLISLANNSLSSNGNVTESGCKECEELEEKNIKEFLQSFVHIVQAFINT
light: B6 light
notes: not restated for this mutant
B8: xmPD-1-hIL15 V49R/E46G/N1G/N4Q/D30N (other)
heavy 1: EVQLVESGGGLVKPGGSLELSCAASGFTFSSYWMSWVRQAPEKGLEWVAAISPSGGSTYYADSVKGRFTISRDNAKNTLFLQMTSLRSEDTAMYYCAKESWGAYYDLWGQGTTVTVSSASTKGPSVFPLAPSSKSTSGGTAALGCLVKDYFPEPVTVSWNSGALTSGVHTFPAVLQSSGLYSLSSVVTVPSSSLGTQTYICNVNHKPSNTKVDKKVEPKSCDKTHTCPPCPAPEAAGAPSVFLFPPKPKDTLMISRTPEVTCVVVDVSHEDPEVKFNWYVDGVEVHNAKTKPREEQYNSTYRVVSVLTVLHQDWLNGKEYKCKVSNKALPAPIEKTISKAKGQPREPQVYTLPPCREEMTKNQVSLSCAVKGFYPSDIAVEWESNGQPENNYKTTPPVLDSDGSFFLVSKLTVDKSRWQQGNVFSCSVMHEALHNHYTQKSLSLSPGSGGGGSGGGGSGGGGGWVQVISDLKKIEDLIQSMHIDATLYTESNVHPSCKVTAMKCFLLGLQRISLESGDASIHDTVENLIILANNSLSSNGNVTESGCKECEELEEKNIKEFLQSFVHIVQMFINTS
heavy 2: EVQLVESGGGLVKPGGSLELSCAASGFTFSSYWMSWVRQAPEKGLEWVAAISPSGGSTYYADSVKGRFTISRDNAKNTLFLQMTSLRSEDTAMYYCAKESWGAYYDLWGQGTTVTVSSASTKGPSVFPLAPSSKSTSGGTAALGCLVKDYFPEPVTVSWNSGALTSGVHTFPAVLQSSGLYSLSSVVTVPSSSLGTQTYICNVNHKPSNTKVDKKVEPKSCDKTHTCPPCPAPEAAGAPSVFLFPPKPKDTLMISRTPEVTCVVVDVSHEDPEVKFNWYVDGVEVHNAKTKPREEQYNSTYRVVSVLTVLHQDWLNGKEYKCKVSNKALPAPIEKTISKAKGQPREPQVCTLPPSREEMTKNQVSLWCLVKGFYPSDIAVEWESNGQPENNYKTTPPVLDSDGSFFLYSKLTVDKSRWQQGNVFSCSVMHEALHNHYTQKSLSLSPGK
light: B6 light
B9: xmPD-1-hIL15Rasu-hIL15(E64Q/D30N/N4K/M109A) (other)
heavy 1: B6 heavy 1
heavy 2: B7 heavy 2 with N559K, S623I
light: B6 light
notes: not restated for this mutant
B10: xmPD-1-hIL15Rasu-hIL15(E64Q/D30N/I68S) (other)
heavy 1: B6 heavy 1
heavy 2: B7 heavy 2 with A664M
light: B6 light
notes: not restated for this mutant

target: T1, human IL-2Rβ; assay: SPR, kinetic fit

Row | Kd [nM] | Binder
1 | 513 | B1
2 | 479 | B2
3 | 315 | B3
4 | 117 | B4
5 | 346 | B5

target: T2, human IL-15Rα (human, UniProt Q13261 31-205, limits assumed); assay: SPR, steady state
T2 construct: also called hIL-15Rα; IL-15 receptor alpha
T2 sequence (Q13261 31-205 limits assumed): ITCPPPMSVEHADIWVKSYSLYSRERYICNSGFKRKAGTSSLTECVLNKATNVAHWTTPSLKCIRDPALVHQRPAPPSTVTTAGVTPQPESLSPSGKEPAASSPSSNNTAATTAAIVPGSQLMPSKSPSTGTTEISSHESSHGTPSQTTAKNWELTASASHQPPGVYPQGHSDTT

Row | Kd [nM] | Binder
6 | 243 | B2
7 | 361 | B5

target: T1, human IL-2Rβ; assay: SPR, fusion captured
Experimental: (§1) Anti-human Fc sensor chips were prepared at 25° C. with a running buffer of 10 mM HEPES, 150 mM NaCl, 0.05% (v/v) Tween-20, pH 7.4. All surfaces of a Biacore CM4 sensor chip were activated with a 1:1 (v/v) mixture of 400 mM EDC and 100 mM NHS for 7 minutes, at a flow rate of 10 μL/min. An anti-human Fc reagent (Goat anti-human IgG Fc-γ specific, SouthernBiotech, Birmingham, Ala., Catalog #2014-01) was diluted to 50 μg/mL in 10 mM sodium acetate (pH 4.5) and injected on all flow cells for 7 minutes at 20 μL/min. All flow cells were blocked with 100 mM ethylenediamine in 200 mM Borate buffer pH 8.5 for 7 minutes at 10 μL/min.
(§2) All protein interaction experiments were performed at 37° C. using a running buffer of 10 mM HEPES, 150 mM NaCl, 0.05% (v/v) Tween-20, pH 7.4, 1 mg/mL BSA. Anti-PD-1-hIL-15 fusion proteins were captured at 10 μg/mL at a flow rate of 10 μL/min for 2 minutes. Different fusion proteins were captured in flow cells 2, 3 and 4. No protein was captured onto flow cell 1 which was used as a reference surface. […] After each analyte injection, dissociation was monitored for 5 minutes followed by regeneration of all flow cells with three 60-second injections of 75 mM phosphoric acid. […] For kinetic analysis, the double-referenced sensorgrams were fit globally to a simple 1:1 Langmuir with mass transport binding model using Biacore T200 Evaluation Software version 2.0. For steady-state affinity analysis, the double-referenced equilibrium binding responses were fit with a 1:1 Langmuir steady-state model using Biacore T200 Evaluation Software version 2.0.

Row | Kd [nM] | Binder
8 | > 3000 | B6
9 | > 1500 | B7
10 | > 1500 | B8
11 | > 3000 | B9
12 | > 3000 | B10

target: T2, human IL-15Rα; assay: SPR 37C, fusion captured by anti-human Fc
Experimental: as §1, §2

Row | binding result | Binder
13 | no binding (tested: 3000 nM) | B6
14 | no binding (tested: 3000 nM) | B7
15 | no binding (tested: 3000 nM) | B9
16 | no binding (tested: 3000 nM) | B10
